Mean effective dose (ED50), CTLL-2 proliferation (MTT assay) data for one substance are collected here from patent publication US20220213163A1.

This assay concerns the target IL-2 receptor (IL-2R) on CTLL-2 cells. In words: cell-based or functional assay.

In turn, “Proleukin (recombinant human IL-2, Novartis Pharma GmbH; the Aldesleukin drug employed in the clinic) (from UniProt P60568 22-153) (ligand)” displayed a mean effective dose (ED50), CTLL-2 proliferation (MTT assay) of 0.34 ng/mL.
